The nature of this series: self-splicing fitness, log relative to wild type (ln ratio); higher = more splicing; Tetrahymena group I intron in knt gene, E. coli kanamycin selection, DiMSum; sequences stand for … in CUCUCU…GGAGGGAAAAGUUAUCAGGCAUGCACCUGGUAGCUAGUCUUUAAACCAAUAGAUUGCAUCGGUUUAAAAGGCAAGACCGUCAAAUUGCGGGAAAGGGGUCAACAGCCGUUCAGUACCAAGUCUCAGGGGAAACUUUGAGAUGGCCUUGCAAAGGGUAUGGUAAUAAGCUGACGGACAUGGUCCUAACCACGCAGCCAAGUCCUAAGUCAACAGAUCUUCUGUUGAUAUGGAUGCAGUUCACAGACUAAAUGUCGGUCGGGGAAGAUGUAUUCUUCUCAUAAGAUAUAGUCGGACCUCUCCUUAAUGGGAGCUAGCGGAUGAAGUGAUGCAACACUGGAGCCGCUGGGAACUAAUUUGUAUGCGAAAGUAUAUUGAUUAGUUUUGGAGUACUCGUGGUCG
The method, boiled down:
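The eight P1ex-region nucleotides of an intron in the knt kanamycin-resistance gene on pET-22b(+) were all randomised and the library put into E. coli BL21(DE3). Six replicate transformations were grown overnight at 37°C or 30°C on LB agar with or without 25 μg/mL kanamycin, together with 100 μg/mL carbenicillin, 50 μM IPTG and 0.2% rhamnose. Colonies were pooled and amplicon-sequenced on an Illumina HiSeq 2500. Fitness from DiMSum is the error-weighted combination of wild-type-normalised replicate fold changes, kanamycin over none.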

± gives the uncertainty stated by the source.

Regarding GGGCAGCAAUAUUACGUAGG, the “self-splicing fitness (ln)” value is, setting by setting: (30 °C) -2.38 ± 0.075; (37 °C) -1.32 ± 0.091.

For ACGGAGCAAUAUUACGCUUC, the “self-splicing fitness (ln)” value is, setting by setting: (30 °C) -2.92 ± 0.21; (37 °C) -2.81 ± 0.23. On the same counts, the results for AAGUAGCAAUAUUACGAGUG are -3.16 ± 0.18 and -2.03 ± 0.19. For the sequence AAUCAGCAAUAUUACGUUCC, the “self-splicing fitness (ln)” value by setting is: (30 °C) -2.26 ± 0.24; (37 °C) -0.62 ± 0.22. For GGUAAGCAAUAUUACGUGUC, in that order: -2.08 ± 0.23 and -0.504 ± 0.3. In the case of UCAUAGCAAUAUUACGUCGA, the “self-splicing fitness (ln)” value is, setting by setting: (30 °C) -0.314 ± 0.093; (37 °C) -0.745 ± 0.13. As to CAGGAGCAAUAUUACGUACC, the “self-splicing fitness (ln)” value (30 °C) is -2.36 ± 0.45. For GUUGAGCAAUAUUACGUUGA, the “self-splicing fitness (ln)” value runs as follows: (30 °C) -3.13 ± 0.29; (37 °C) -2.9 ± 0.33.

Regarding UCUAAGCAAUAUUACGCAUU, the “self-splicing fitness (ln)” value by setting is: (30 °C) -2.92 ± 0.21; (37 °C) -2.83 ± 0.28.

Take GCUGAGCAAUAUUACGAUUA: the “self-splicing fitness (ln)” value reads like this: (30 °C) -2.88 ± 0.37; (37 °C) -0.431 ± 0.38.

As for CCUUAGCAAUAUUACGCAAC, for the setting “37 °C”, the “self-splicing fitness (ln)” value is -2.04 ± 0.48. As for CUAUAGCAAUAUUACGACGC, the “self-splicing fitness (ln)” value reads like this: (30 °C) -3.02 ± 0.36; (37 °C) -2.14 ± 0.38. For the sequence GCACAGCAAUAUUACGAGGU, the “self-splicing fitness (ln)” value was -1.85 ± 0.095 (30 °C) and 0.0148 ± 0.11 (37 °C). For ACAUAGCAAUAUUACGUACC, the “self-splicing fitness (ln)” value by setting is: (30 °C) -0.809 ± 0.17; (37 °C) 0.0877 ± 0.2.

In the case of UUGGAGCAAUAUUACGCUUA, the “self-splicing fitness (ln)” value is -2.03 ± 0.16 (30 °C) and -2.35 ± 0.23 (37 °C). With CACCAGCAAUAUUACGAGAA, the “self-splicing fitness (ln)” value is -3.55 ± 0.43 (30 °C) and -2.33 ± 0.28 (37 °C).

As for CGCAAGCAAUAUUACGCGUA, the “self-splicing fitness (ln)” value reads like this: (30 °C) -3.47 ± 0.15; (37 °C) -2.55 ± 0.12. In the case of CUCUAGCAAUAUUACGGUCU, the “self-splicing fitness (ln)” value reads like this: (30 °C) -3.26 ± 0.2; (37 °C) -3.06 ± 0.23. For CACAAGCAAUAUUACGCUAC, in that order: -3.18 ± 0.19 and -2.26 ± 0.18. Consider ACGAAGCAAUAUUACGCUUU, for which the “self-splicing fitness (ln)” value reads like this: (30 °C) -3.88 ± 0.22; (37 °C) -2.63 ± 0.22. For AUCUAGCAAUAUUACGGUUC, in that order: -2.94 ± 0.32 and -2.34 ± 0.32. In the case of AACAAGCAAUAUUACGUCGU, the “self-splicing fitness (ln)” value (30 °C) is -2.18 ± 0.068 and the “self-splicing fitness (ln)” value (37 °C) was -0.677 ± 0.067.

On to ACGGAGCAAUAUUACGCGAC, for which the “self-splicing fitness (ln)” value (30 °C) is -2.45 ± 0.21 and the “self-splicing fitness (ln)” value (37 °C) was -2.55 ± 0.41.

Consider GUUCAGCAAUAUUACGCAAC, for which the “self-splicing fitness (ln)” value was -2.96 ± 0.22 (30 °C) and -1.48 ± 0.21 (37 °C). As for UACCAGCAAUAUUACGGACA, the “self-splicing fitness (ln)” value by setting is: (30 °C) -0.227 ± 0.061; (37 °C) 0.423 ± 0.076. For UUCCAGCAAUAUUACGCGGU, in that order: -3.42 ± 0.18 and -2.54 ± 0.2. Turning to CCUUAGCAAUAUUACGCCUC, the “self-splicing fitness (ln)” value (37 °C) was -2.65 ± 0.41.

In the case of UUACAGCAAUAUUACGACAG, the “self-splicing fitness (ln)” value is, setting by setting: (30 °C) -1.02 ± 0.068; (37 °C) -0.222 ± 0.083. On the same counts, the results for UCCCAGCAAUAUUACGAUGC are -4.03 ± 0.3 and -3.29 ± 0.32. On the same counts, the results for CUUUAGCAAUAUUACGACAG are -0.431 ± 0.071 and -0.339 ± 0.097. For ACGAAGCAAUAUUACGGCUU, in that order: -3.97 ± 0.24 and -2.76 ± 0.22.

With UUGUAGCAAUAUUACGGGGA, the “self-splicing fitness (ln)” value (30 °C) was -1.98 ± 0.26 and the “self-splicing fitness (ln)” value (37 °C) was -0.346 ± 0.17. On the same counts, the results for UGUGAGCAAUAUUACGAUAU are -2.31 ± 0.22 and -1.66 ± 0.37. For UUGAAGCAAUAUUACGUGCG, in that order: -0.232 ± 0.063 and -0.131 ± 0.078.

As to GAUGAGCAAUAUUACGAUUA, the “self-splicing fitness (ln)” value is, setting by setting: (30 °C) -2.57 ± 0.21; (37 °C) -1.4 ± 0.18.

Take CCGUAGCAAUAUUACGCCAC: the “self-splicing fitness (ln)” value runs as follows: (30 °C) -1.95 ± 0.22; (37 °C) -1.78 ± 0.33. With CGGAAGCAAUAUUACGGGUU, the “self-splicing fitness (ln)” value is, setting by setting: (30 °C) -4.48 ± 0.26; (37 °C) -2.77 ± 0.2. Regarding UCAGAGCAAUAUUACGUAAG, the “self-splicing fitness (ln)” value is, setting by setting: (30 °C) -2.92 ± 0.14; (37 °C) -1.82 ± 0.13.

As to AGUGAGCAAUAUUACGCACU, the “self-splicing fitness (ln)” value runs as follows: (30 °C) -2.97 ± 0.44; (37 °C) -2.24 ± 0.38.

As to CUGCAGCAAUAUUACGGAGC, the “self-splicing fitness (ln)” value was -3.93 ± 0.47 (30 °C) and -2.61 ± 0.31 (37 °C).

With UCUAAGCAAUAUUACGUGUA, the “self-splicing fitness (ln)” value is -1.6 ± 0.12 (30 °C) and -0.704 ± 0.1 (37 °C). For CCGGAGCAAUAUUACGUACC, the “self-splicing fitness (ln)” value (37 °C) was -0.504 ± 0.41. Take AUACAGCAAUAUUACGGCUA: the “self-splicing fitness (ln)” value is 0.0244 ± 0.072 (30 °C) and 0.138 ± 0.082 (37 °C). For UGAGAGCAAUAUUACGUUCG, the “self-splicing fitness (ln)” value is -2.08 ± 0.13 (30 °C) and -1.3 ± 0.15 (37 °C). On the same counts, the results for GGGAAGCAAUAUUACGGAUG are -3.55 ± 0.21 and -1.15 ± 0.15.

As to GACCAGCAAUAUUACGAAUA, the “self-splicing fitness (ln)” value (30 °C) is -1.74 ± 0.11 and the “self-splicing fitness (ln)” value (37 °C) is -0.549 ± 0.11. On the same counts, the results for GCACAGCAAUAUUACGGAGC are -2.16 ± 0.15 and -2.1 ± 0.21. CGCGAGCAAUAUUACGUGCC: the “self-splicing fitness (ln)” value was -3.8 ± 0.42 (30 °C) and -2.96 ± 0.48 (37 °C). For ACGCAGCAAUAUUACGCACA, in that order: -0.862 ± 0.11 and -0.0125 ± 0.12. On to GAGAAGCAAUAUUACGGGAU, for which the “self-splicing fitness (ln)” value was -3.32 ± 0.16 (30 °C) and -2.58 ± 0.2 (37 °C). On the same counts, the results for ACAUAGCAAUAUUACGCUGG are -2.36 ± 0.11 and -1.46 ± 0.12. Regarding ACGCAGCAAUAUUACGUUGC, the “self-splicing fitness (ln)” value is -2.7 ± 0.1 (30 °C) and -2.75 ± 0.16 (37 °C). For the sequence CUUUAGCAAUAUUACGGAUU, the “self-splicing fitness (ln)” value (37 °C) was -1.57 ± 0.41.

In the case of ACUAAGCAAUAUUACGCUGG, the “self-splicing fitness (ln)” value is -2.82 ± 0.19 (30 °C) and -2.93 ± 0.31 (37 °C). As to CAGUAGCAAUAUUACGGGAG, the “self-splicing fitness (ln)” value (30 °C) was -2.37 ± 0.18 and the “self-splicing fitness (ln)” value (37 °C) is -1.91 ± 0.27. For ACGCAGCAAUAUUACGGUAG, in that order: -3.56 ± 0.17 and -2.94 ± 0.19. In the case of UCUCAGCAAUAUUACGCAGG, the “self-splicing fitness (ln)” value is, setting by setting: (30 °C) -4.14 ± 0.42; (37 °C) -2.28 ± 0.25. On the same counts, the results for GUGCAGCAAUAUUACGAUGA are -0.903 ± 0.14 and -0.772 ± 0.14. For GCCCAGCAAUAUUACGUCUA, in that order: -1.37 ± 0.084 and -1.15 ± 0.093. On the same counts, the results for AACGAGCAAUAUUACGUGGC are -3.85 ± 0.3 and -2.94 ± 0.27. For UUCGAGCAAUAUUACGAAUA, the “self-splicing fitness (ln)” value (37 °C) was -1.26 ± 0.3. Turning to UCAUAGCAAUAUUACGCAUA, the “self-splicing fitness (ln)” value (37 °C) is -1.34 ± 0.47. For AUCCAGCAAUAUUACGAACG, the “self-splicing fitness (ln)” value is -0.746 ± 0.08 (30 °C) and -0.625 ± 0.12 (37 °C). Turning to AAACAGCAAUAUUACGGCCA, the “self-splicing fitness (ln)” value was -1.41 ± 0.11 (30 °C) and -0.0737 ± 0.12 (37 °C). On the same counts, the results for AGUCAGCAAUAUUACGUAUU are -1.08 ± 0.079 and -0.181 ± 0.094. With GGCCAGCAAUAUUACGUCAC, where the note is “30 °C”, the “self-splicing fitness (ln)” value is -2.59 ± 0.34.

For the sequence UUUAAGCAAUAUUACGAUAG, the “self-splicing fitness (ln)” value reads like this: (30 °C) -0.412 ± 0.096; (37 °C) -0.23 ± 0.097. As to GGUCAGCAAUAUUACGUCCA, the “self-splicing fitness (ln)” value is -1.63 ± 0.11 (30 °C) and -1.02 ± 0.1 (37 °C). On the same counts, the results for GUUAAGCAAUAUUACGGAUA are -2.09 ± 0.12 and -1.61 ± 0.16. For GACUAGCAAUAUUACGCAAA, in that order: -1.49 ± 0.15 and -1.88 ± 0.23.

GACGAGCAAUAUUACGAGUU: the “self-splicing fitness (ln)” value (30 °C) was -3.06 ± 0.34.

For AAAGAGCAAUAUUACGACUC, the “self-splicing fitness (ln)” value runs as follows: (30 °C) -1.4 ± 0.071; (37 °C) -0.537 ± 0.1. As for UAGUAGCAAUAUUACGGAUU, the “self-splicing fitness (ln)” value by setting is: (30 °C) -4.06 ± 0.47; (37 °C) -0.834 ± 0.18. On the same counts, the results for CUAGAGCAAUAUUACGCAUC are -3.92 ± 0.29 and -2.65 ± 0.45. As for GAAGAGCAAUAUUACGGCAC, the “self-splicing fitness (ln)” value is -1.31 ± 0.12 (30 °C) and -0.934 ± 0.16 (37 °C). In the case of CCGAAGCAAUAUUACGCUCU, the “self-splicing fitness (ln)” value (30 °C) was -3.24 ± 0.4.

Take CGAAAGCAAUAUUACGACUG: the “self-splicing fitness (ln)” value runs as follows: (30 °C) -0.103 ± 0.064; (37 °C) -0.811 ± 0.078. Regarding CGUUAGCAAUAUUACGUCUC, the “self-splicing fitness (ln)” value (37 °C) is -1.86 ± 0.35.

(Values after the supplement of paper PMC7877785.)
